One test addresses T1, human HGF (human, UniProt P14210 32-728).
T1 construct: also called hepatocyte growth factor
Description: SPR (ProteOn). As to the method: (§1) SPR was measured using a ProteOn instrument (BioRad) and measurement was performed according standard procedures known to the person skilled in the art.

For a further test, the target named is T2, human serum albumin (human, UniProt P02768 25-609).
T2 construct: For SEC-MALS purified from CSL Behring 20% solution; also called HSA; SA (human)
T2 sequence (P02768 25-609 limits assumed): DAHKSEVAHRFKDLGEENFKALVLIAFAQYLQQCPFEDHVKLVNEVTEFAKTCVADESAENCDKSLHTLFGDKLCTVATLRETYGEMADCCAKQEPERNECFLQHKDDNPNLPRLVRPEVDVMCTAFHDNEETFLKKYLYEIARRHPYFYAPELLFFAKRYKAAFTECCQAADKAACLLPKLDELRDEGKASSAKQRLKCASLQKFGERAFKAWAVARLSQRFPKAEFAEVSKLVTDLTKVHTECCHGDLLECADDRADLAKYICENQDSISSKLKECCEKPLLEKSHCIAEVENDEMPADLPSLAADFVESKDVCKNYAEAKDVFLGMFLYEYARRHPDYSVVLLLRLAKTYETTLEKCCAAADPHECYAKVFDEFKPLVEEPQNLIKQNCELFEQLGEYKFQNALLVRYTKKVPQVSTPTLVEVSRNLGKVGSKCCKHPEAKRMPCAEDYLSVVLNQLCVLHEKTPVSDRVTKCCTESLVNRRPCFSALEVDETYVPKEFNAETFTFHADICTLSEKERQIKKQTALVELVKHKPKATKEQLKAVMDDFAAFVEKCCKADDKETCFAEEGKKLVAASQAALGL
The experiment in a line: SPR (ProteOn). The method, then:
as §1

One may read the Kd as the free concentration of one partner at which half of the binding sites on the other are occupied at equilibrium, for simple one-to-one binding.

T1 sequence (P14210 32-728 limits assumed): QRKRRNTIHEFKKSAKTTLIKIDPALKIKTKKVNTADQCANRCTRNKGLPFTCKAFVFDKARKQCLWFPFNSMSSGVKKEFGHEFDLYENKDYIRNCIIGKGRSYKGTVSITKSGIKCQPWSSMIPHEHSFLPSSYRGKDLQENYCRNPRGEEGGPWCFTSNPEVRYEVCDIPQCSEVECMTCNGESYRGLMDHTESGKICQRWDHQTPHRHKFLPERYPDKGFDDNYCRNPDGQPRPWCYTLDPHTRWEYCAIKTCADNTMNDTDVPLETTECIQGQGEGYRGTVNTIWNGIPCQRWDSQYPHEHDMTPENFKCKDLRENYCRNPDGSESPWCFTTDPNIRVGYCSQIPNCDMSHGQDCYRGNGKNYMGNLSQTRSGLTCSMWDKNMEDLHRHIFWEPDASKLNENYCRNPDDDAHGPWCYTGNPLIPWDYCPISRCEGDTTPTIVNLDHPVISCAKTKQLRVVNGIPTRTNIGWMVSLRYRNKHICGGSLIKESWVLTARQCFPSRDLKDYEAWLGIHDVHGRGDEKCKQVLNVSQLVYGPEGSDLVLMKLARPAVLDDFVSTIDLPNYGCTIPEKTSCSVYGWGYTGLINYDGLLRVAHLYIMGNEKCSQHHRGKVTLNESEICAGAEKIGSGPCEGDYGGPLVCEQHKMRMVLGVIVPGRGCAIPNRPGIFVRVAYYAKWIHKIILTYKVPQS

B1: Protein #30 (designed binder)
chain: MRGSHHHHHHGSDLGKKLLEAARAGQDDEVRILMANGADVNTHDNFGDTPLHLAASIGHLEIVEVLLKHGADVNAFDSYGDTPLHLAASSGHLEIVEVLLKYGADVNALDYNGNTPLHLAANSGRLEIVEVLLKHGADVNAQDKFGKTAFDISIDNGNEDLAEILQKAA
Take B1: the binding result in the test with human HGF is reported as “binds”.

B2: Protein #31 (designed binder)
chain: MRGSHHHHHHGSDLGKKLLEAARAGQDDEVRILMANGADVNAVDAWGDTPLHLAASIGHLEIVEVLLKNGADVNAADYYGDTPLHLAASAGHLEIVEVLLKYGADVNAQDDNGNTPLHLAANTGRLEIVEVLLKHGADVNAQDKFGKTAFDISIDNGNEDLAEILQKAA
As for B2, the binding result with human HGF is “binds”.

B3: Protein #36 (designed binder)
chain: MRGSHHHHHHGSDLGKKLLEAARAGQDDEVRILMANGADVNANDSSGLTPLHLAAFYGHLEIVEVLLKYGADVNADDDWGHTPLHLAAHYGHLEIVEVLLKHGADVNAIDTRGLTPLHLAAIAGHLEIVEVLLKYGADVNAQDKFGKTAFDISIDNGNEDLAEILQKAA
Regarding B3, in the test with human HGF, the binding result is listed as “binds”.

B4: Protein #52 (designed binder)
chain: MRGSHHHHHHGSDLDKKLLEAARAGQDDEVRILMANGADVNAKDERGTTPLHLAAVYGHLEIVEVLLKAGADVNAKNETGYTPLHLADSSGHLEIVEVLLKHSADVNAQDKSGKTPADLAADAGHEDIAEVLQKAA
Take B4: the Kd with human serum albumin was 6 nM.

B5: Protein #56 (designed binder)
chain: MRGSHHHHHHGSDLDKKLLEAARAGQDDEVRILMANGADVNAKDERGTTPLHLAAVYGHLEIVEVLLKAGADVNAKNETGYTPLHLADSSGHLEIVEVLLKASADVNAQDKSGKTPADLAADAGHEDIAEVLQKAA
Take B5: the binding result with human serum albumin is “binds”.

B6: Protein #54 (designed binder)
chain: MRGSHHHHHHGSDLDKKLLEAARAGQDDEVRILMANGADVNAKDERGTTPLHLAAVYGHLEIVEVLLKAGADVNAKNETGYTPLHLADSSGHLEIVEVLLKAGADVNAQDKSGKTPADLAADAGHEDIAEVLQKAA
In the case of B6, the Kd with human serum albumin was found to be 11 nM. In other words, the double-digit nanomolar range.

B7: Protein #55 (designed binder)
chain: MRGSHHHHHHGSDLDKKLLEAARAGQDDEVRILMANGADVNAKDERGTTPLHLAAVYGHLEIVEVLLKAGADVNAKNETGYTPLHLADSSGHLEIVEVLLKHGADVNAQDKSGKTPADLAADAGHEDIAEVLQKAA
In turn, B7 came in with a dissociation constant (Kd) in the test with human serum albumin of 15 nM. The Kd values of the last two molecules are within 1.5-fold of each other.

B8: Protein #25 (designed binder)
chain: MRGSHHHHHHGSDLGKKLLEAARAGQDDEVRILMANGADVNAKDRYGDTPLHLAADIGHLEIVEVLLKAGADVNAEDYFGNTPLHLAASYGHLEIVEVLLKAGADVNAKDDYGNTPLHLAANTGHLEIVEVLLKAGADVNAQDKSGKTPADLAADAGHEDIAEVLQKAA
In the test with human HGF, B8 displayed a Kd of 0.066 nM.

B9: Protein #27 (designed binder)
chain: MRGSHHHHHHGSDLGKKLLEAARAGQDDEVRILLKAGADVNAKDRYGDTPLHLAADAGHLKIVEVLLKAGADVNAEDYFGNTPLHLAASAGHLEIVEVLLKAGADVNAKDDAGNTPLHLAANTGHLKIVEVLLKAGADVNAQDKSGKTPADLAADAGHEDIAEVLQKAA
Molecule B9 registered a Kd with human HGF of 0.129 nM.

B10: Protein #33 (designed binder)
chain: MRGSHHHHHHGSDLGKKLLEAARAGQDDEVRILMANGADVNAQDRWGDTPLHLAASAGHLKIVEVLLKYGADVNADDVFGDTPLHLAASLGHLEIVEVLLKYGADVNADDYAGNTPLHLAANTGHLEIVEVLLKHGADVNAQDKFGKTAFDISIDNGNEDLAEILQKAA
Turning to B10, the binding result in the test with human HGF is given as “binds”.

B11: Protein #34 (designed binder)
chain: MRGSHHHHHHGSDLGKKLLEAARAGQDDEVRILMANGADVNAQDRWGDTPLHLAASAGHLKIVEVLLKYGADVNADDVFGDTPLHLAASLGHLEIVEVLLKYGADVNADDYAGNTPLHLAANTGHLEIVEVLLKYGADVNAQDKFGKTAFDISIDNGNEDLAEILQKAA
Regarding B11, the binding result in the test with human HGF is “binds”.

B12: Protein #53 (designed binder)
chain: MRGSHHHHHHGSDLGKKLLEAARAGQDDEVRFLMANGADVNAADERGTTPLHLAAVYGHLEIVEVLLKNGADVNAQNETGYTPLHLADSSGHLEIVEVLLKHSADVNAQDKFGKTAFDISIDNGNEDLAEILQKAA
As to B12, the binding result with human serum albumin was “binds”.

B13: Protein #51 (designed binder)
chain: MRGSHHHHHHGSDLGKKLLEAARAGQDDEVRILMANGADVNAKDYFSHTPLHLAARNGHLKIVEVLLKAGADVNAKDFAGKTPLHLAANDGHLEIVEVLLKHGADVNAQDIFGKTPADIAADAGHEDIAEVLQKAA
Regarding B13, the Kd in the test with human serum albumin is 14 nM.

B14: Protein #46 (designed binder)
chain: MRGSHHHHHHGSDLGKKLLEAARAGQDDEVRILLAAGADVNAKDYFSHTPLHLAARNGHLKIVEVLLKAGADVNAKDFAGKTPLHLAANDGHLEIVEVLLKHGADVNAQDIFGKTPADIAADAGHEDIAEVLQKAA
The molecule B14 had a Kd with human serum albumin of 22 nM.

B15: Protein #43 (designed binder)
chain: MRGSHHHHHHGSDLGKKLLEAARAGQDDEVRILMANGADVNAADYFSHTPLHLAARDGHLKIVEVLLKYGADVNASDFAGKTPLHLAANDGHLEIVEVLLKHGADVNAQDIFGKTAFDISIDNGNEDLAEILQKAA
Take B15: the binding result with human serum albumin is “binds”.

B16: Protein #45 (designed binder)
chain: MRGSHHHHHHGSDLGKKLLEAARAGQDDEVRILMANGADVNAKDYFSHTPLHLAARNGHLEIVEVLLKAGADVNAKDFAGKTPLHLAANDGHLEIVEVLLKHGADVNAQDIFGKTPADIAADAGHEDIAEVLQKAA
Molecule B16 showed a Kd with human serum albumin of 13 nM. This lies in the double-digit nanomolar range.

B17: Protein #44 (designed binder)
chain: MRGSHHHHHHGSDLDKKLLEAARAGQDDEVRILMANGADVNAKDYFSHTPLHLAARNGHLEIVEVLLKAGADVNAKDFAGKTPLHLAANDGHLEIVEVLLKHGADVNAQDIFGKTPADIAADAGHEDIAEVLQKAA
Turning to B17, binding in the test with human serum albumin was put at a Kd of 26 nM.

B18: Protein #48 (designed binder)
chain: MRGSHHHHHHGSDLGKKLLEAARAGQDDEVRILLKAGADVNAKDYFSHTPLHLAARNGHLKIVEVLLKAGADVNAKDFAGKTPLHLAANDGHLEIVEVLLKAGADVNAQDIFGKTPADIAADAGHEDIAEVLQKAA
Take B18: binding with human serum albumin was characterised by a dissociation constant (Kd) of 20 nM.

B19: Protein #50 (designed binder)
chain: MRGSHHHHHHGSDLGKKLLEAARAGQDDEVRELLKAGADVNAKDYFSHTPLHLAARNGHLKIVEVLLKAGADVNAKDFAGKTPLHLAANEGHLEIVEVLLKAGADVNAQDIFGKTPADIAADAGHEDIAEVLQKAA
B19 yielded a Kd with human serum albumin of 27 nM.

B20: Protein #47 (designed binder)
chain: MRGSHHHHHHGSDLDKKLLEAARAGQDDEVRILMANGADVNAKDYFSHTPLHLAARNGHLKIVEVLLKAGADVNAKDFAGKTPLHLAANDGHLEIVEVLLKHGADVNAQDIFGKTPADIAADAGHEDIAEVLQKAA
As to B20, the affinity with human serum albumin, expressed as Kd, was 27 nM.

B21: Protein #49 (designed binder)
chain: MRGSHHHHHHGSDLGKKLLEAARAGQDDEVRELLKAGADVNAKDYFSHTPLHLAARNGHLKIVEVLLKAGADVNAKDFAGKTPLHLAANDGHLEIVEVLLKAGADVNAQDIFGKTPADIAADAGHEDIAEVLQKAA
B21: the Kd with human serum albumin came to 15 nM.

B22: Protein #40 (designed binder)
chain: MRGSHHHHHHGSDLGKKLLEAARAGQDDEVRILMASGADVNAADYFSHTPLHLAARDGHLKIVEVLLKYGADVDASDFAGKTPLHLAANDGHLEIVEVLLKHDADVNAQDKFGKTAFDISIDNGNEDLAEILQKAA
As for B22, the binding result in the test with human serum albumin is given as “binds”.

B23: Protein #41 (designed binder)
chain: MRGSHHHHHHGSDLGKELLEAARAGQDDEVRILMANGADVNAADYFGHTPLHLAARNGHLKIVEVLLKYGADVNASDFAGKTPLHLAANDGHLEIVEVLLKHGADVNAQDIFGKTAFEISIDNGNEDLAEILQKAA
B23: the binding result in the test with human serum albumin is “binds”.

B24: Protein #42 (designed binder)
chain: MRGSHHHHHHGSDLGKKLLEAARAGQDDEVRILMANGADVNAADYFGHTPLHLAARDGHLKIVEVLLKYGADVNASDFAGKTPLHLAANDGHLEIVEVLLKHGADVNAQDKFGKTAFDISIDNGNEDLAEILQKAA
B24: in the test with human serum albumin, the binding result was “binds”.

B25: Protein #35 (designed binder)
chain: MRGSHHHHHHGSDLGKKLLEAARAGQDDEVRILMANGADVNANDFLGLTPLHLAASTGHLEIVEVLLKYGADVNAIDAYGHTPLHLAANNGHLEIVEVLLKYGADVNAIDHFGYTPLHLAAMFGHLEIVEVLLKNGADVNAQDKFGKTAFDISIDNGNEDLAEILQKAA
In the case of B25, the binding result with human HGF is “binds”.

B26: Protein #24 (designed binder)
chain: MRGSHHHHHHGSDLGKKLLEAARAGQDDEVRILMANGADVNAKDRFGDTPLHLAADIGHLEIVEVLLKAGADVNAKDWFGNTPLHLAASFGHLEIVEVLLKAGADVNAKDDYGNTPLHLAANTGHLEIVEVLLKAGADVNAQDKFGKTAFDISIDNGNEDLAEILQKAA
Turning to B26, in the test with human HGF, the Kd is 0.163 nM.

B27: Protein #32 (designed binder)
chain: MRGSHHHHHHGSDLGKKLLEAARAGQDDEVRILMANGADVNAIDTWGNTPLHLAADYGHLEIVEVLLKNGADVNALDWFGDTPLHLAASLGHLEIVEVLLKNGADVNAVDTYGNTPLHLAANTGRLEIVEVLLKYGADVNAQDKFGKTAFDISIDNGNEDLAEILQKAA
For the molecule B27, the binding result with human HGF is reported as “binds”.

B28: Protein #57 (designed binder)
chain: MRGSHHHHHHGSDLGKKLLEAARAGQDDEVRILMANGADVNAKDYFSHTPLHLAARNGHLKIVEVLLKAGADVNAKDFAGKTPLHLAANDGHLEIVEVLLKHGADVNAQDIFGKTPADIAADAGHEDIAEVLQKLGSPTPTPTTPTPTPTTPTPTPTGSRSDLDITGLKLN
For the molecule B28, the binding result in the test with human serum albumin is recorded as “binds”.
